{"source": "patent US20260035452A1", "about": "(THE UNIVERSITY OF BIRMINGHAM, priority 2022, published 2026)", "key": {"[1]": {"assay": "Haematological investigations", "format": "in vivo", "conditions": "mice, 100 μg/mouse", "protocol": "To assess the neutralising activity of Ab-IPL-IL-17™, CD-1 mice were injected i.p. with 100 μg/mouse of Ab-IPL-IL-17™, MAB421 or secukinumab as positive controls. After 30 min, an i.p. injection of 10 μg/mouse of IL-17A, IL-17F or IL-17A/F heterodimer was administered. After 2 h blood was collected by intracardiac puncture and serum levels of (A) IL-17A, (B) IL-17F or (C) IL-17A/F heterodimer were quantified by Elisa. (C-F) For the evaluation of immunogenic effects CD-1 mice were injected i.p. with 100 μg of IgG1 isotype antibody (vehicle) or IL-17 neutralising antibodies (bimekizumab, secukinumab, MAB421 or Ab-IPL-IL-17™). In the selected time-point (2 h, 24 h, 72 h, 7 days, 14 days and 21 days) total IgG, IgG1, lymphocytes and platelets levels were determined by Elisa and haematological blood count test, respectively. Data are presented as mean±S.D. for n=5 mice per group. Statistical analysis was conducted by one or two-way ANOVA followed by Bonferroni's for multiple comparisons. *P≤0.05, **P≤0.01, ***P≤0.001 vs IL-17 group; ^#P≤0.05, ^##P≤0.01, ^###P≤0.001, ^####P≤0.0001 vs vehicle group.\n(§1) Standard laboratory procedures were used for blood sampling and measurements (95). Haematological investigations, for all experimental conditions, including blood count test, leukocyte, and sidereal formula were performed on citrated and not-anticoagulated blood samples, respectively. Serological tests were performed by CELL-DYN Sapphire purchased from Abbott S.R.L. (Milan, Italy). All procedures were conducted under strictly aseptic conditions.\nas §1, with “measurements.” for “measurements (95).”"}, "[2]": {"system": "patients", "conditions": "patients with IBD; cited from earlier work"}}, "note": "Marks after values point to notes of the source that are not given here."}
{"substance": "Secukinumab: human anti-IL-17A monoclonal antibody", "values": [{"measurement": "GRA (Granulocytes)", "setting": "[1]; 2 h", "value": "0.22 ± 0.16 10^3/μL"}, {"measurement": "HCT (Hematocrit)", "setting": "[1]; 2 h", "value": "29.56 ± 2.26", "unit": "%"}, {"measurement": "HGB (Hemoglobin)", "setting": "[1]; 2 h", "value": "9.92 ± 1.78", "unit": "g/dL"}, {"measurement": "MCH (Mean Corpuscular Hemoglobin)", "setting": "[1]; 2 h", "value": "17.58 ± 1.42", "unit": "pg"}, {"measurement": "MCV (Mean Cell Volume)", "setting": "[1]; 2 h", "value": "61.86 ± 8.95", "unit": "fL"}, {"measurement": "MHCH", "setting": "[1]; 2 h", "value": "30.60 ± 4.27", "unit": "g/dL"}, {"measurement": "MID", "setting": "[1]; 2 h", "value": "0.38 ± 0.31 10^3/μL"}, {"measurement": "MPV (Mean Platelet Volume)", "setting": "[1]; 2 h", "value": "4.54 ± 0.5771", "unit": "fL"}, {"measurement": "PCT (Plateletcrit)", "setting": "[1]; 2 h", "value": "0.27 ± 0.08", "unit": "%"}, {"measurement": "PWD (Platelet Distribution Width)", "setting": "[1]; 2 h", "value": "16.30 ± 2.15", "unit": "%"}, {"measurement": "RBC (Red Blood Cells)", "setting": "[1]; 2 h", "value": "5.57 ± 1.18 10^6/μL"}, {"measurement": "RDW (Red blood cells Distribution Width)", "setting": "[1]; 2 h", "value": "18.14 ± 1.87", "unit": "%"}, {"measurement": "WBC (White Blood Cells)", "setting": "[1]; 2 h", "value": "3.96 ± 1.19 10^3/μL"}, {"measurement": "GRA (Granulocytes)", "setting": "[1]; 24 h", "value": "0.24 ± 0.11 10^3/μL"}, {"measurement": "HCT (Hematocrit)", "setting": "[1]; 24 h", "value": "28.86 ± 1.80", "unit": "%"}, {"measurement": "HGB (Hemoglobin)", "setting": "[1]; 24 h", "value": "8.88 ± 1.65", "unit": "g/dL"}, {"measurement": "MCH (Mean Corpuscular Hemoglobin)", "setting": "[1]; 24 h", "value": "19.10 ± 1.88", "unit": "pg"}, {"measurement": "MCV (Mean Cell Volume)", "setting": "[1]; 24 h", "value": "63.60 ± 8.78", "unit": "fL"}, {"measurement": "MHCH", "setting": "[1]; 24 h", "value": "31.54 ± 4.15", "unit": "g/dL"}, {"measurement": "MID", "setting": "[1]; 24 h", "value": "0.44 ± 0.25 10^3/μL"}, {"measurement": "MPV (Mean Platelet Volume)", "setting": "[1]; 24 h", "value": "5.16 ± 0.8764", "unit": "fL"}, {"measurement": "PCT (Plateletcrit)", "setting": "[1]; 24 h", "value": "0.25 ± 0.09", "unit": "%"}, {"measurement": "PWD (Platelet Distribution Width)", "setting": "[1]; 24 h", "value": "16.06 ± 2.30", "unit": "%"}, {"measurement": "RBC (Red Blood Cells)", "setting": "[1]; 24 h", "value": "4.48 ± 1.11 10^6/μL"}, {"measurement": "RDW (Red blood cells Distribution Width)", "setting": "[1]; 24 h", "value": "18.24 ± 1.12", "unit": "%"}, {"measurement": "WBC (White Blood Cells)", "setting": "[1]; 24 h", "value": "4.44 ± 1.88 10^3/μL"}, {"measurement": "GRA (Granulocytes)", "setting": "[1]; 72 h", "value": "0.30 ± 0.16 10^3/μL"}, {"measurement": "HCT (Hematocrit)", "setting": "[1]; 72 h", "value": "21.30 ± 5.47** %"}, {"measurement": "HGB (Hemoglobin)", "setting": "[1]; 72 h", "value": "6.92 ± 1.53* g/dL"}, {"measurement": "MCH (Mean Corpuscular Hemoglobin)", "setting": "[1]; 72 h", "value": "21.78 ± 4.20* pg"}, {"measurement": "MCV (Mean Cell Volume)", "setting": "[1]; 72 h", "value": "81.12 ± 8.84", "unit": "fL"}, {"measurement": "MHCH", "setting": "[1]; 72 h", "value": "30.90 ± 6.72", "unit": "g/dL"}, {"measurement": "MID", "setting": "[1]; 72 h", "value": "0.40 ± 0.25 10^3/μL"}, {"measurement": "MPV (Mean Platelet Volume)", "setting": "[1]; 72 h", "value": "7.80 ± 1.733**** fL"}, {"measurement": "PCT (Plateletcrit)", "setting": "[1]; 72 h", "value": "0.16 ± 0.06", "unit": "%"}, {"measurement": "PWD (Platelet Distribution Width)", "setting": "[1]; 72 h", "value": "18.02 ± 2.61", "unit": "%"}, {"measurement": "RBC (Red Blood Cells)", "setting": "[1]; 72 h", "value": "3.7 ± 1.05* 10^6/μL"}, {"measurement": "RDW (Red blood cells Distribution Width)", "setting": "[1]; 72 h", "value": "16.86 ± 3.47", "unit": "%"}, {"measurement": "WBC (White Blood Cells)", "setting": "[1]; 72 h", "value": "5.10 ± 2.34 10^3/μL"}, {"measurement": "GRA (Granulocytes)", "setting": "[1]; 7 d", "value": "0.24 ± 0.13 10^3/μL"}, {"measurement": "HCT (Hematocrit)", "setting": "[1]; 7 d", "value": "22.94 ± 4.68* %"}, {"measurement": "HGB (Hemoglobin)", "setting": "[1]; 7 d", "value": "7.76 ± 1.31", "unit": "g/dL"}, {"measurement": "MCH (Mean Corpuscular Hemoglobin)", "setting": "[1]; 7 d", "value": "21.14 ± 4.82", "unit": "pg"}, {"measurement": "MCV (Mean Cell Volume)", "setting": "[1]; 7 d", "value": "71.98 ± 8.64", "unit": "fL"}, {"measurement": "MHCH", "setting": "[1]; 7 d", "value": "29.50 ± 5.03", "unit": "g/dL"}, {"measurement": "MID", "setting": "[1]; 7 d", "value": "0.40 ± 0.16 10^3/μL"}, {"measurement": "MPV (Mean Platelet Volume)", "setting": "[1]; 7 d", "value": "6.58 ± 1.242* fL"}, {"measurement": "PCT (Plateletcrit)", "setting": "[1]; 7 d", "value": "0.21 ± 0.05", "unit": "%"}, {"measurement": "PWD (Platelet Distribution Width)", "setting": "[1]; 7 d", "value": "15.54 ± 2.91", "unit": "%"}, {"measurement": "RBC (Red Blood Cells)", "setting": "[1]; 7 d", "value": "4.10 ± 0.78 10^6/μL"}, {"measurement": "RDW (Red blood cells Distribution Width)", "setting": "[1]; 7 d", "value": "18.38 ± 1.90", "unit": "%"}, {"measurement": "WBC (White Blood Cells)", "setting": "[1]; 7 d", "value": "4.74 ± 1.30 10^3/μL"}, {"measurement": "GRA (Granulocytes)", "setting": "[1]; 14 d", "value": "0.20 ± 0.10 10^3/μL"}, {"measurement": "HCT (Hematocrit)", "setting": "[1]; 14 d", "value": "27.88 ± 2.63", "unit": "%"}, {"measurement": "HGB (Hemoglobin)", "setting": "[1]; 14 d", "value": "9.480 ± 1.36", "unit": "g/dL"}, {"measurement": "MCH (Mean Corpuscular Hemoglobin)", "setting": "[1]; 14 d", "value": "17.50 ± 1.09", "unit": "pg"}, {"measurement": "MCV (Mean Cell Volume)", "setting": "[1]; 14 d", "value": "63.46 ± 8.13", "unit": "fL"}, {"measurement": "MHCH", "setting": "[1]; 14 d", "value": "29.64 ± 4.38", "unit": "g/dL"}, {"measurement": "MID", "setting": "[1]; 14 d", "value": "0.38 ± 0.13 10^3/μL"}, {"measurement": "MPV (Mean Platelet Volume)", "setting": "[1]; 14 d", "value": "5.86 ± 0.5128", "unit": "fL"}, {"measurement": "PCT (Plateletcrit)", "setting": "[1]; 14 d", "value": "0.25 ± 0.05", "unit": "%"}, {"measurement": "PWD (Platelet Distribution Width)", "setting": "[1]; 14 d", "value": "15.98 ± 2.03", "unit": "%"}, {"measurement": "RBC (Red Blood Cells)", "setting": "[1]; 14 d", "value": "5.98 ± 1.42 10^6/μL"}, {"measurement": "RDW (Red blood cells Distribution Width)", "setting": "[1]; 14 d", "value": "18.06 ± 2.06", "unit": "%"}, {"measurement": "WBC (White Blood Cells)", "setting": "[1]; 14 d", "value": "3.08 ± 0.86 10^3/μL"}, {"measurement": "GRA (Granulocytes)", "setting": "[1]; 21 d", "value": "0.20 ± 0.10 10^3/μL"}, {"measurement": "HCT (Hematocrit)", "setting": "[1]; 21 d", "value": "29.04 ± 2.30", "unit": "%"}, {"measurement": "HGB (Hemoglobin)", "setting": "[1]; 21 d", "value": "10.16 ± 1.52", "unit": "g/dL"}, {"measurement": "MCH (Mean Corpuscular Hemoglobin)", "setting": "[1]; 21 d", "value": "17.62 ± 1.05", "unit": "pg"}, {"measurement": "MCV (Mean Cell Volume)", "setting": "[1]; 21 d", "value": "62.56 ± 7.90", "unit": "fL"}, {"measurement": "MHCH", "setting": "[1]; 21 d", "value": "30.34 ± 4.54", "unit": "g/dL"}, {"measurement": "MID", "setting": "[1]; 21 d", "value": "0.34 ± 0.15 10^3/μL"}, {"measurement": "MPV (Mean Platelet Volume)", "setting": "[1]; 21 d", "value": "4.92 ± 0.4207", "unit": "fL"}, {"measurement": "PCT (Plateletcrit)", "setting": "[1]; 21 d", "value": "0.28 ± 0.04", "unit": "%"}, {"measurement": "PWD (Platelet Distribution Width)", "setting": "[1]; 21 d", "value": "16.14 ± 1.80", "unit": "%"}, {"measurement": "RBC (Red Blood Cells)", "setting": "[1]; 21 d", "value": "6.25 ± 1.18 10^6/μL"}, {"measurement": "RDW (Red blood cells Distribution Width)", "setting": "[1]; 21 d", "value": "18.34 ± 1.33", "unit": "%"}, {"measurement": "WBC (White Blood Cells)", "setting": "[1]; 21 d", "value": "3.280 ± 1.47 10^3/μL"}, {"measurement": "side effect: intestinal inflammation", "setting": "[2]", "value": "enhanced intestinal inflammation"}]}
